This is an account of results in US11795488B2, “Methods for enzymatic peptide ligation” (NANYANG TECHNOLOGICAL UNIVERSITY, priority 2016, dated 2023).

Data set [1] has as its system OaAEP1. Nature of the data set: Self-activation (acid-induced self-cleavage) of OaAEP1 and mutants, SDS PAGE. The format is biochemical, Oldenlandia affinis. The following applies: for self-activation (auto-activation): acidic pH. The protocol:
To self-activate OaAEP1, 1 mM EDTA and 0.5 mM Tris (2-carboxyethyl) phosphine hydrochloride were added to the immature protein and the pH of the solution was adjusted to 4 with glacial acetic acid. Fractions containing the protein (as analyzed by SDS-PAGE) were pooled and then incubated for 3 to 16 hours at room temperature or 37° C. Protein precipitation at this pH allowed removal of the bulk of the contaminating proteins by centrifugation. Activated proteins were concentrated by ultracentrifugation using a 50 kDa cutoff concentrator (Sartorius) and stored at −80° C.
OaAEP1 was cloned and expressed in E. coli as an ubiquitin fusion protein as reported earlier (FIG. 2) (Harris, K. S., et al., Nat Commun, 2015. 6: p. 10199). Using ion exchange and size exclusion chromatography (SEC), sufficient amounts of pure protein suitable for enzymatic and structural analysis were obtained (FIG. 2B). At the neutral pH of purification (pH=7.4), OaAEP1 was mainly present as a heterodimer, where both monomers are in their zymogenic form, but only one monomer had retained in addition the ubiquitin and N-terminal His-tag, while the fusion moiety was cleaved in the other monomer (labeled as “His-Ub-AEP-FL” and “AEP-FL” in FIG. 2B and FIG. 2C). This heterodimer was subjected to crystallization trials for structural studies (see below). In agreement with reference (Harris, K. S., et al., Nat Commun, 2015. 6: p. 10199), activation of OaAEP1 was optimum for pH values in the range of 3.4-4.0 (FIG. 2D). Following activation, OaAEP1 converts to a monomer in solution according to SEC analysis (“AEP-holo” in FIG. 2C). To test the ability of the protein to be activated in trans, the catalytic residue Cys217 was mutated into Ser217.
Since the crystallization conditions are compatible with OaAEP1 activation, the present crystal structure is likely to have captured one of the conformational states occurring along the activation pathway. To determine whether Gln347 belongs to the segment recognized and cleaved during self-activation, mutagenesis experiments targeting region 346-351 of the OaAEP1 protein were performed (FIG. 4C). The role of Gln347 in OaAEP1 auto-activation was particularly assessed by mutating this residue to Ala, and whether enzyme activation was abolished was examined. Only little impact was found on the mutant enzyme activation (FIG. 4C). Residues Asn346, Asp349 and Asp351 that are next to Gln347 were then targeted. […] Thus, trans-activation requires the presence of at least one of the four Asx/Gln residues (with a slight preference for Asp349 or Asp351) found in this segment of the linker.

The test system of data set [2] is OaAEP1. Put plainly: Trans-activation of inactive mutants by wild type OaAEP1. The format is biochemical, Oldenlandia affinis. From the text:
(a) Schematic illustration of the His-Ub-OaAEP1 construct used with the boundaries of the three regions of the protein indicated and the deduced activation segment. 6-His tag and Ubiquitin tag followed by OaAEP1 (24-474) was synthesized and inserted into pET28b vector. After Ni-NTA affinity purification, about half of Ub-AEP-FL lost the N-terminal fusion tags and was purified in AEP-FL form (53-474), which was eventually crystallized. The enzymatic active form of OaAEP1b, AEP-holo (53-347/351) is the acidic induced self-cleavage product of AEP-FL, which lost the C-terminal auto inhibitory cap domain. (b) SDS PAGE analysis of fractions obtained over the course of chromatographic purification and of dissolved crystals. (c) Size-exclusion chromatography profiles of OaAEP1 before and after activation showing Ub-AEP-FL and AEP-FL heterodimer and the AEP-holo monomer. The elution volumes of standard proteins are indicated for comparison. (d) SDS PAGE analysis of OaAEP1 pH-dependent activation. The activation was performed for 3 hours, and the peak of activation is in between pH 3.4 to 4.
OaAEP1 was cloned and expressed in E. coli as an ubiquitin fusion protein as reported earlier (FIG. 2) (Harris, K. S., et al., Nat Commun, 2015. 6: p. 10199). Using ion exchange and size exclusion chromatography (SEC), sufficient amounts of pure protein suitable for enzymatic and structural analysis were obtained (FIG. 2B). […]
Since the crystallization conditions are compatible with OaAEP1 activation, the present crystal structure is likely to have captured one of the conformational states occurring along the activation pathway. […] The role of Gln347 in OaAEP1 auto-activation was particularly assessed by mutating this residue to Ala, and whether enzyme activation was abolished was examined. […]

Data set [3] deals with the molecule itself. Put plainly: size exclusion chromatography (self-association). Background: SEC sorts molecules by how far they enter the pores of the column.

B1: Cys217Ser (protein)
chain: MVRYLAGAVLLLVVLSVAAAVSGARDGDYLHLPSEVSRFFRPQETNDDHGEDSVGTRWAVLIAGSKGYANYRHQAGVCHAYQILKRGGLKDENIVVFMYDDIAYNESNPRPGVIINSPHGSDVYAGVPKDYTGEEVNAKNFLAAILGNKSAITGGSGKVVDSGPNDHIFIYYTDHGAAGVIGMPSKPYLYADELNDALKKKHASGTYKSLVFYLEASESGSMFEGILPEDLNIYALTSTNTTESSWCYYCPAQENPPPPEYNVCLGDLFSVAWLEDSDVQNSWYETLNQQYHHVDKRISHASHATQYGNLKLGEEGLFVYMGSNPANDNYTSLDGNALTPSSIVVNQRDADLLHLWEKFRKAPEGSARKEEAQTQIFKAMSHRVHIDSSIKLIGKLLFGIEKCTEILNAVRPAGQPLVDDWACLRSLVGTFETHCGSLSEYGMRHTRTIANICNAGISEEQMAEAASQACASIP
As to B1, the “activation and ligase activity of active site mutant” value in data set [1] is “only displayed background level activation and ligase activity”. Further, the “activation in trans by wild type OaAEP1” value in data set [2] was “could be rescued in trans by addition of only 10% of wild type OaAEP1”.

B2: Asn346Ala-Gln347Ala-Asp349Ala-Asp351Ala (protein)
chain: MVRYLAGAVLLLVVLSVAAAVSGARDGDYLHLPSEVSRFFRPQETNDDHGEDSVGTRWAVLIAGSKGYANYRHQAGVCHAYQILKRGGLKDENIVVFMYDDIAYNESNPRPGVIINSPHGSDVYAGVPKDYTGEEVNAKNFLAAILGNKSAITGGSGKVVDSGPNDHIFIYYTDHGAAGVIGMPSKPYLYADELNDALKKKHASGTYKSLVFYLEACESGSMFEGILPEDLNIYALTSTNTTESSWCYYCPAQENPPPPEYNVCLGDLFSVAWLEDSDVQNSWYETLNQQYHHVDKRISHASHATQYGNLKLGEEGLFVYMGSNPANDNYTSLDGNALTPSSIVVAARAAALLHLWEKFRKAPEGSARKEEAQTQIFKAMSHRVHIDSSIKLIGKLLFGIEKCTEILNAVRPAGQPLVDDWACLRSLVGTFETHCGSLSEYGMRHTRTIANICNAGISEEQMAEAASQACASIP
With B2, the “self-activation (auto-activation)” value is recorded as “most significantly impaired auto-activation activity” in data set [1] and “more severe loss of function phenotype” in data set [1] (listed as A4). The “activation in trans by wild type OaAEP1” value in data set [2] is given as “could not be rescued in trans”.

B3: Cys217Ala (protein)
chain: MVRYLAGAVLLLVVLSVAAAVSGARDGDYLHLPSEVSRFFRPQETNDDHGEDSVGTRWAVLIAGSKGYANYRHQAGVCHAYQILKRGGLKDENIVVFMYDDIAYNESNPRPGVIINSPHGSDVYAGVPKDYTGEEVNAKNFLAAILGNKSAITGGSGKVVDSGPNDHIFIYYTDHGAAGVIGMPSKPYLYADELNDALKKKHASGTYKSLVFYLEAAESGSMFEGILPEDLNIYALTSTNTTESSWCYYCPAQENPPPPEYNVCLGDLFSVAWLEDSDVQNSWYETLNQQYHHVDKRISHASHATQYGNLKLGEEGLFVYMGSNPANDNYTSLDGNALTPSSIVVNQRDADLLHLWEKFRKAPEGSARKEEAQTQIFKAMSHRVHIDSSIKLIGKLLFGIEKCTEILNAVRPAGQPLVDDWACLRSLVGTFETHCGSLSEYGMRHTRTIANICNAGISEEQMAEAASQACASIP
Regarding B3, in data set [1], the “self-activation (auto-activation)” value is “devoid of self-activation activity”. Besides, in data set [2], the “activation in trans by wild type OaAEP1” value was “trans-cleavage and activation of most of the AEP-FL Cys217Ala after 18 hours”.

B4: AEP-holo (activated form of OaAEP1, without the C-terminal cap domain) (enzyme)
chain: SVGTRWAVLIAGSKGYANYRHQAGVCHAYQILKRGGLKDENIVVFMYDDIAYNESNPRPGVIINSPHGSDVYAGVPKDYTGEEVNAKNFLAAILGNKSAITGGSGKVVDSGPNDHIFIYYTDHGAAGVIGMPSKPYLYADELNDALKKKHASGTYKSLVFYLEACESGSMFEGILPEDLNIYALTSTNTTESSWCYYCPAQENPPPPEYNVCLGDLFSVAWLEDSDVQNSWYETLNQQYHHVDKRISHASHATQYGNLKLGEEGLFVYMGSNPANDNYTSLDGNALTPSSIVVNQRDAD
notes: also called mature OaAEP1
For B4, in data set [3], the binding result is “no binding”.
